Results on two molecules are retold here after EP4324849A1 (Emergence Therapeutics AG, dated 2024).

For orientation: koff means a measure of how fast the partners let go of each other. What is called kon is the rate constant with which the complex forms.

In test [1] the target is T1, homodimer recombinant Fc protein, IgV domain of human Nectin-4 fused to human Fc domain (human, UniProt Q96NY8 32-146, limits assumed).
T1 construct: also called Fc-Nectin-4; Fc fusion IgV Nectin-4 domain; not shown: human Fc domain
T1 sequence: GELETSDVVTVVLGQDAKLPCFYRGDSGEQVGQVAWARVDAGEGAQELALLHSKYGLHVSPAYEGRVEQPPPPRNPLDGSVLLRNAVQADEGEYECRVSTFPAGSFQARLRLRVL
The test is described as follows: BLI (Octet Red96), antibody on FAB2G sensor, IgV-Fc homodimer as analyte, 1:2 bivalent analyte model. (In general: In BLI a coated tip is dipped into the sample, and binding shifts an interference pattern.)

In test [2] the target is T2, his-tagged recombinant extra cellular domain of the Nectin-4 protein (R&D systems/Biotechne) (Homo sapiens (Human), UniProt Q96NY8 32-349).
T2 construct: Bought protein; also called His-Nectin-4; recombinant his-tagged Nectin-4 EC; not shown: His tag
T2 sequence: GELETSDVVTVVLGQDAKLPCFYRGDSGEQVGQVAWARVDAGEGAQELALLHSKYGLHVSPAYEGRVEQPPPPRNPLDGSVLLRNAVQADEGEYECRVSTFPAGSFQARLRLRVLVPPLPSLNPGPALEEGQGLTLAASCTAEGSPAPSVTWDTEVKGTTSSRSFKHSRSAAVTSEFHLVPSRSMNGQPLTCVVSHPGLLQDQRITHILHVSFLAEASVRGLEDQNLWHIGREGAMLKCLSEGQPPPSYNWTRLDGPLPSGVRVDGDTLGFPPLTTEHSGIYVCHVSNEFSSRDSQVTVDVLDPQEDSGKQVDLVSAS
The test can be described thus: BLI (Octet Red96), antibody on AHC sensor, His-Nectin-4 ECD as analyte, 1:1 model.

Test [3] addresses T2, his-tagged recombinant extra cellular …. The test is described as follows: BLI (Octet Red96), His-Nectin-4 ECD as analyte.

B1: Ch-5A12.2 (parental chimeric 5A12.2 monoclonal anti-Nectin-4 antibody) (antibody, V domains shown)
VH: QIQLQQSGAELVKPGASVTLSCKTSGFTFNSMYISWLKQKPGQSLEWIAWIYAGTGGTRFNQKFTGKVQLTVDTSSSTAYMQFSSLTTDDSAIYYCAIRSGFVPMDYWGQGTSVTVSS
VL: SIVMTQTPKFLLVSAGDRVTITCKASQSVSNDVAWYQQKPGQSPKLLIYYASNRYTGVPDRFTGSGYGTDFTFTISTVQAEDLAVYFCQQDYSSPWTFGGGTKLEIK
Regarding B1, the Kd in test [1] turned out to be 5.3 nM. Besides, the Kd in test [2] worked out at 4.2 nM. For the same molecule, in test [3], the Kd came out at 3.4 nM, the koff turned out to be 0.000928 s⁻¹ and the on-rate (kon) is 275000 M⁻¹ s⁻¹.

B2: HA22 (Enfortumab), human monoclonal anti-Nectin-4 antibody (antibody, V domains shown)
VH: EVQLVESGGGLVQPGGSLRLSCAASGFTFSSYNMNWVRQAPGKGLEWVSYISSSSSTIYYADSVKGRFTISRDNAKNSLSLQMNSLRDEDTAVYYCARAYYYGMDVWGQGTTVTVSS
VL: DIQMTQSPSSVSASVGDRVTITCRASQGISGWLAWYQQKPGKAPKFLIYAASTLQSGVPSRFSGSGSGTDFTLTISSLQPEDFATYYCQQANSFPPTFGGGTKVEIK
On to B2, for which the Kd is 12.9 nM in test [1] and 5.2 nM in test [2].
